The target in this test is RNA ligase from Palaeococcus pacificus (PpaRnl), wild-type (Palaeococcus pacificus). Briefly: SEC.

Consider “RNA ligase from Palaeococcus pacificus (PpaRnl), wild-type (enzyme)”, for which the stoichiometry N was found to be 2.

Usually stoichiometry N stands for the number of molecules, sites or subunits per partner or assembly.

Values taken from publication PMC11040149.
